B1: Regulatory protein rop, P03051 (parent)
chain: MTKQEKTALNMARFIRSQTLTLLEKLNELDADEQADICESLHDHADELYRSCLARFGDDGENL

Variants of: B1
Details: Escherichia coli, pH 6, Thermal, DSC, Sodium phosphate/Sodium sulfate 10 mM/10 mM/, reversible: yes, structure 1ROP, whole UniProt chain shown

Row | Variant | ddG of mutation (higher = less stable) (25 °C) [kcal/mol] | heat capacity change of unfolding (25 °C) [kcal/mol/K] | unfolding free energy (25 °C) [kcal/mol] | Tm [°C] | change of melting temperature, mutant - wild type (higher = more stable) [°C] | heat capacity change of unfolding [kcal/mol/K] | unfolding enthalpy (calorimetric) [kcal/mol] | unfolding enthalpy (van 't Hoff) [kcal/mol]
1 | L41A | 6.12 | 1.65 | 11 | 52.9 | -18.1 | 1.65 | 80.1 | 92.8
2 | L41V | 2.53 | 1.99 | 14.6 | 65.3 | -5.7 | 1.99 | 110 | 114

— FireProtDB (doi:10.1002/prot.340230110)
